The source of these data is publication PMC5584140 (The Journal of Cell Biology, 2017).

The Kd is the concentration at which binding is half-saturated. Read a low Kd as higher affinity.

The target of the assay is T1, µ1 MHD carrying a C-terminal Avitag, WT (UniProt Q9BXS5 158-423).
T1 sequence (looked up): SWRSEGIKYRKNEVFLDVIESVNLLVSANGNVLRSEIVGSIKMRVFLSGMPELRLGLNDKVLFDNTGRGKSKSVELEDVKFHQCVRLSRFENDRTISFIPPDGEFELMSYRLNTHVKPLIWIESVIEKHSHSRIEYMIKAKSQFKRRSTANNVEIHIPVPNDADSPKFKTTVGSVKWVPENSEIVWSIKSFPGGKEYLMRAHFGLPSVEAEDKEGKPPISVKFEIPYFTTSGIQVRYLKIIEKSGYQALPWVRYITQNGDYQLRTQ
The experiment in a line: SPR. (In general: In SPR one partner is held on a chip, and binding of the other changes the refractive index at the surface.)

Consider CKVTRRPKASDYQRL [TGN38 peptide carrying a canonical YXXΦ signal], for which the Kd is roughly 20 µM.
